Assay results: doi:10.1101/2025.04.25.650293

Biological target: ELMSAN1 (human (endogenous in 143B)) (UniProt Q6PJG2)
Assay: affinity purification with mass spectrometry

UniProt Q6PJG2, sequence (Q6PJG2 whole entry): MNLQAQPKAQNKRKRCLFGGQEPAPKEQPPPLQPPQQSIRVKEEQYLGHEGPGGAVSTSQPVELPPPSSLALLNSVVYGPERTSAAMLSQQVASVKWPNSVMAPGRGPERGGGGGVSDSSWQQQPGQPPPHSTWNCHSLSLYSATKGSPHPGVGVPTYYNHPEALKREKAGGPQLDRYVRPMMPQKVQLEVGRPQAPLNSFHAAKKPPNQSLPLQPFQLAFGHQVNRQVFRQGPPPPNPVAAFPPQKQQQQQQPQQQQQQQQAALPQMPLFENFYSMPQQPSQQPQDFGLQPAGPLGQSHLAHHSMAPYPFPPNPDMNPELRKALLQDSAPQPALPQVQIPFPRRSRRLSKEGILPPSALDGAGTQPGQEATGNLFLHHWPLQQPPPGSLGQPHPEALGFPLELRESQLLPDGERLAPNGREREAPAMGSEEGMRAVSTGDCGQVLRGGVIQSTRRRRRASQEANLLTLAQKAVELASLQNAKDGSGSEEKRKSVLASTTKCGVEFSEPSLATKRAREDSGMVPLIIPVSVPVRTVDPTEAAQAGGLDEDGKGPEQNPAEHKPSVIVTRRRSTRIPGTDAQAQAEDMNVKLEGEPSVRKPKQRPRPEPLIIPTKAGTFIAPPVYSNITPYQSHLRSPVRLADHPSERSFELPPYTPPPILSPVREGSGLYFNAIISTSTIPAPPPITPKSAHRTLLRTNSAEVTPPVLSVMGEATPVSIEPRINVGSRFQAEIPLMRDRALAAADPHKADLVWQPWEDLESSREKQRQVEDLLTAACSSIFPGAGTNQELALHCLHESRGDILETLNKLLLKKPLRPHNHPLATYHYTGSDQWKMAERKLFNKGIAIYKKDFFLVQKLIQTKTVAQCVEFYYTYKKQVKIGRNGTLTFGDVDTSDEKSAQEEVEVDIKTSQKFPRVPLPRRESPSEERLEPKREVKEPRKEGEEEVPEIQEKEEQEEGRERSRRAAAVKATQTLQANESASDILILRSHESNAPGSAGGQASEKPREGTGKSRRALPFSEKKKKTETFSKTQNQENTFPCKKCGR

## PDHX (from UniProt O00330 54-501) (natural protein)
  fold decrease in binding with ISX9 against DMSO: > 100 fold
